From patent publication US20180086837A1 (Ablynx, published 2018)

B1: 281F12-35GS-03F11 (bispecific antibody)
chain: EVQLVESGGGLVQAGDSLRLSCAASGRAFSRYAMGWFRQAPGKEREFVAAIGWGPSKTNYADSVKGRFTISRDNAKNTVYLQMNTLKPEDTAVYSCAAKFVNTDSTWSRSEMYTYWGQGTQVTVSSGGGGSGGGGSGGGGSGGGGSGGGGSGGGGSGGGGSEVQLVESGGGSVQPGGSLTLSCGTSGRTFNVMGWFRQAPGKEREFVAAVRWSSTGIYYTQYADSVKSRFTISRDNAKNTVYLEMNSLKPEDTAVYYCAADTYNSNPARWDGYDFRGQGTQVTVSS
notes: Bispecific Nanobody construct, CXCR4 arm N-terminal; also called 281F12-35GS-3F11; CXCR4-35GS-CD4; not shown: C-terminal c-myc-His6 tag (E. coli) or FLAG3-His6 tag (Pichia)
B2: 03F11-35GS-281F12 (bispecific antibody)
chain: EVQLVESGGGSVQPGGSLTLSCGTSGRTFNVMGWFRQAPGKEREFVAAVRWSSTGIYYTQYADSVKSRFTISRDNAKNTVYLEMNSLKPEDTAVYYCAADTYNSNPARWDGYDFRGQGTQVTVSSGGGGSGGGGSGGGGSGGGGSGGGGSGGGGSGGGGSEVQLVESGGGLVQAGDSLRLSCAASGRAFSRYAMGWFRQAPGKEREFVAAIGWGPSKTNYADSVKGRFTISRDNAKNTVYLQMNTLKPEDTAVYSCAAKFVNTDSTWSRSEMYTYWGQGTQVTVSS
notes: Bispecific Nanobody construct, CD4 arm N-terminal; also called CD4-35GS-CXCR4; 3F11-281F12; not shown: C-terminal c-myc-His6 tag (E. coli) or FLAG3-His6 tag (Pichia)

Legend:
human CXCR4 [1] = target: T1, human CXCR4 (human, UniProt P61073 1-352); assay: cell-based or functional assay
human CXCR4 [2] = target: T1, human CXCR4; assay: inhibition of 12G5 (competitor, 10 nM PE-labelled) binding, Jurkat cells
human CXCR4 [3] = target: T1, human CXCR4; assay: cell-based or functional assay; remark: listed apart in the source
human CXCR4 [4] = target: T1, human CXCR4; assay: inhibition of 12G5 binding, Jurkat cells
human CXCR4 [5] = target: T1, human CXCR4; assay: inhibition of 12G5 (competitor, 10 nM PE-labelled) binding, THP-1 cells
human CXCR4 [6] = target: T1, human CXCR4; assay: SDF-1^AF647 displacement, SUPT-1 cells, flow cytometry, n = 3
human CXCR4 [7] = target: T1, human CXCR4; assay: inhibition of 12G5 (competitor, 10 nM PE-labelled) binding, SUPT-1 cells
human CXCR4 [8] = target: T1, human CXCR4; assay: SDF-1^AF647 displacement, SUPT-1 cells, flow cytometry, n = 3; SDF-1^AF647 displacement on SUPT-1 cells (CXCR4 and CD4 co-expressed)
human CXCR4 [9] = target: T1, human CXCR4; assay: inhibition of 12G5 binding, Jurkat cells; 12G5 inhibition on Jurkat cells; potency ratio to monovalent 281F12
human CXCR4 [10] = target: T1, human CXCR4; assay: inhibition of 12G5 (competitor, 10 nM PE-labelled) binding, Jurkat cells; 12G5 mAb binding inhibition on Jurkat cells (CD4 low)
human CXCR4 [11] = target: T1, human CXCR4; assay: inhibition of 12G5 (competitor, 10 nM PE-labelled) binding, SUPT-1 cells; 12G5 mAb binding inhibition on SUPT-1 cells (CXCR4 and CD4 co-expressed)

T1 sequence (P61073 whole entry): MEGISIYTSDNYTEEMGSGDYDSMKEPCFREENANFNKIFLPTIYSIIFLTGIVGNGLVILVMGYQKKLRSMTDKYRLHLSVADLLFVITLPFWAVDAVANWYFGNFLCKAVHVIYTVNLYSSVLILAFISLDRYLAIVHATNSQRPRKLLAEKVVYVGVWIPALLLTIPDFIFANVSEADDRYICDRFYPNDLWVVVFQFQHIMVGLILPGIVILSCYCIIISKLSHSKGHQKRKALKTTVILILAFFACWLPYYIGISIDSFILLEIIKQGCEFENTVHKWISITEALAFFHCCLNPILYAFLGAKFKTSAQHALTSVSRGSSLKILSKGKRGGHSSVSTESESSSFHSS

Row | Binder | IC50, inhibition of SDF-1a-mediated chemotaxis, Jurkat E6-1 cells (human CXCR4 [1]) [nM] | IC50, inhibition of SDF-1a-mediated chemotaxis, MOLM-13 cells (human CXCR4 [1]) [nM] | Ratio to 281F12 (fold increase in potency), chemotaxis, Jurkat E6-1 cells (human CXCR4 [1]) [fold] | Ratio to 281F12 (fold increase in potency), chemotaxis, MOLM-13 cells (human CXCR4 [1]) [fold] | IC50 (human CXCR4 [2]) [nM] | IC50, SDF-1 induced Ca2+ signaling, U87-CD4-CXCR4 cells (human CXCR4 [3]) [nM] | fold loss of potency compared to monovalent CXCR4 Nanobody construct (human CXCR4 [4]) [fold] | IC50 (human CXCR4 [5]) [nM] | IC50 (human CXCR4 [6]) [nM] | IC50 (human CXCR4 [7]) [nM] | IC50 (human CXCR4 [8]) [nM] | fold loss of potency compared to monovalent CXCR4 Nanobody construct (human CXCR4 [9]) [fold] | IC50 (human CXCR4 [10]) [nM] | IC50 (human CXCR4 [11]) [nM]
1 | B1 | 110 | 0.59 | 0.8 | 146 | 29.3 | 5.31 | 2 | 2.48 | 0.96 | 1.5 | – | – | – | –
2 | B2 | 460 | 1.29 | 0.2 | 67 | – | 3.43 | – | – | – | – | 1.5 | 50 | 631 | 56.6
